The results in this text go back to patent publication US20210346432A1 (Memorial Sloan Kettering, published 2021).

The target in assay [1] is T1, ET140-p32 (human, cysteine pairing not given here).
T1 construct: also called peptide 32
T1 peptide: Biotin-SGSGPPLTCQRYCNASVTN
Description: peptide ELISA on streptavidin plate. The procedure: (§1) The peptides were coated onto Streptavidin plates at 2 ug/mL in PBST (PBS+0.05% Tween-20). After washing and blocking with 3% BSA. […] “mIgG1” used in all Examples represents that the variable region is fully human and the Fc part is mouse IgG1. Then HRP anti-mouse IgG detection antibody was added to each well. Finally, the color was developed using TMB substrate. A450 was recorded for data analysis.
(ELISA stands for enzyme-linked immunosorbent assay.)

Assay [2] addresses T2, ET140-p15 (human, cysteine pairing not given here).
T2 construct: also called peptide 15
T2 peptide: Biotin-SGSGSLLHACIPCQLRCSS
The assay is described as follows: peptide ELISA on streptavidin plate. The procedure: as §1

Assay [3] has as its target T3, ET140-p19 (human, cysteine pairing not given here).
T3 construct: also called peptide 19
T3 peptide: Biotin-SGSGACIPCQLRCSSNTPP
The assay is described as follows: peptide ELISA on streptavidin plate. On the procedure: as §1

Assay [4] has as its target T4, ET140-p22 (human, cysteine pairing not given here).
T4 construct: also called peptide 22
T4 peptide: Biotin-SGSGPCQLRCSSNTPPLTC
Description: peptide ELISA on streptavidin plate. The procedure: as §1

Assay [5] concerns the target T5, ET140-p35 (human, cysteine pairing not given here).
T5 construct: also called peptide 35
T5 peptide: Biotin-SGSGTCQRYCNASVTNSVK
Description: peptide ELISA on streptavidin plate. On the procedure: as §1

In assay [6] the target is T6, ET140-p20 (human, cysteine pairing not given here).
T6 construct: also called peptide 20
T6 peptide: Biotin-SGSGCIPCQLRCSSNTPPL
Description: peptide ELISA on streptavidin plate. The procedure: as §1

Assay [7] concerns the target T7, ET140-p25 (human, cysteine pairing not given here).
T7 construct: also called peptide 25
T7 peptide: Biotin-SGSGLRCSSNTPPLTCQRY
The assay is described as follows: peptide ELISA, biotin peptide on streptavidin plate. On the procedure: as §1

Assay [8] deals with T8, ET140-p18 (human, cysteine pairing not given here).
T8 construct: also called peptide 18
T8 peptide: Biotin-SGSGHACIPCQLRCSSNTP
Described as above. On the procedure: as §1

For assay [9], the target named is T9, ET140-p21 (human, cysteine pairing not given here).
T9 construct: also called peptide 21
T9 peptide: Biotin-SGSGIPCQLRCSSNTPPLT
The assay is described as above. On the procedure:
as §1

Assay [10] concerns the target T10, ET140-p13 (human, cysteine pairing not given here).
T10 construct: also called peptide 13
T10 peptide: Biotin-SGSGFDSLLHACIPCQLRC
Described as above. On the procedure:
as §1

Assay [11] has as its target T11, ET140-p31 (human, cysteine pairing not given here).
T11 construct: also called peptide 31
T11 peptide: Biotin-SGSGTPPLTCQRYCNASVT
Described as above. On the procedure: as §1

For assay [12], the target named is T12, ET140-p38 (human).
T12 construct: also called peptide 38
T12 peptide: Biotin-SGSGRYCNASVTNSVKGTN
Described as above. On the procedure:
as §1

The target in assay [13] is T13, ET140-p16 (human, cysteine pairing not given here).
T13 construct: also called peptide 16
T13 peptide: Biotin-SGSGLLHACIPCQLRCSSN
The description is as above. The procedure: as §1

In assay [14] the target is T14, ET140-p8 (human).
T14 construct: also called peptide 8
T14 peptide: Biotin-SGSGSQNEYFDSLLHACIP
Described as above. The procedure:
as §1

Assay [15] addresses T15, ET140-p34 (human, cysteine pairing not given here).
T15 construct: also called peptide 34
T15 peptide: Biotin-SGSGLTCQRYCNASVTNSV
The description is as above. On the procedure: as §1

In assay [16] the target is T16, ET140-p29 (human, cysteine pairing not given here).
T16 construct: also called peptide 29
T16 peptide: Biotin-SGSGSNTPPLTCQRYCNAS
The assay is described as above. The procedure:
as §1

For assay [17], the target named is T3, ET140-p19. Described as above. The procedure: as §1
The target of assay [18] is T17, ET140-p37 (human).
T17 construct: also called peptide 37
T17 peptide: Biotin-SGSGQRYCNASVTNSVKGT
Described as above. On the procedure: as §1

The target of assay [19] is T18, ET140-p24 (human, cysteine pairing not given here).
T18 construct: also called peptide 24
T18 peptide: Biotin-SGSGQLRCSSNTPPLTCQR
The assay is described as above. On the procedure:
as §1

Assay [20] deals with T19, ET140-p9 (human, cysteine pairing not given here).
T19 construct: also called peptide 9
T19 peptide: Biotin-SGSGQNEYFDSLLHACIPC
The assay is described as above. The procedure:
as §1

Assay [21] addresses T20, ET140-p39 (human).
T20 construct: also called peptide 39
T20 peptide: Biotin-SGSGYCNASVTNSVKGTNA
The assay is described as above. The procedure: as §1

The target in assay [22] is T21, ET140-p1 (human).
T21 construct: also called peptide 1; ET140-pl
T21 peptide: Biotin-SGSGLQMAGQCSQNEYFDS
Described as above. On the procedure: as §1

The target in assay [23] is T22, ET140-p4 (human).
T22 construct: also called peptide 4
T22 peptide: Biotin-SGSGAGQCSQNEYFDSLLH
The assay is described as above. On the procedure:
as §1

For assay [24], the target named is T23, ET140-p33 (human, cysteine pairing not given here).
T23 construct: also called peptide 33
T23 peptide: Biotin-SGSGPLTCQRYCNASVTNS
The description is as above. On the procedure: as §1

The target in assay [25] is T24, ET140-p26 (human, cysteine pairing not given here).
T24 construct: also called peptide 26
T24 peptide: Biotin-SGSGRCSSNTPPLTCQRYC
The description is as above. On the procedure: as §1

Assay [26] deals with T25, ET140-p6 (human, cysteine pairing not given here).
T25 construct: also called peptide 6
T25 peptide: Biotin-SGSGQCSQNEYFDSLLHAC
The description is as above. The procedure:
as §1

Assay [27] deals with T26, ET140-p36 (human, cysteine pairing not given here).
T26 construct: also called peptide 36
T26 peptide: Biotin-SGSGCQRYCNASVTNSVKG
The assay is described as above. On the procedure:
as §1

In assay [28] the target is T27, ET140-p2 (human).
T27 construct: also called peptide 2
T27 peptide: Biotin-SGSGQMAGQCSQNEYFDSL
Described as above. On the procedure:
as §1

For assay [29], the target named is T28, ET140-p7 (human, cysteine pairing not given here).
T28 construct: also called peptide 7
T28 peptide: Biotin-SGSGCSQNEYFDSLLHACI
The assay is described as above. On the procedure:
as §1

Assay [30] addresses T29, ET140-p14 (human, cysteine pairing not given here).
T29 construct: also called peptide 14
T29 peptide: Biotin-SGSGDSLLHACIPCQLRCS
The assay is described as above. On the procedure: as §1

For assay [31], the target named is T7, ET140-p25. The assay is described as follows: peptide ELISA on streptavidin plate, antibody 1 ug/mL. The procedure:
as §1

Assay [32] has as its target T24, ET140-p26. The description is as above. The procedure: as §1

No end group written: not given here. *: point of attachment. Biotin = O=C1N[C@H]2[C@H](CS[C@H]2CCCCC(=O)*)N1

B1: ET140-153 mIgG1 (antibody, V domains shown)
VH: QVQLVQSGAEVKKPGSSVKVSCKASGGTFSSYAISWVRQAPGQGLEWMGRIIPILGIANYAQKFQGRVTITADKSTSTAYMELSSLRSEDTAVYYCARGGYYSHDMWSEDWGQGTLVTVSS
VL: LPVLTQPPSASGTPGQRVTISCSGRSSNIGSNSVNWYRQLPGAAPKLLIYSNNQRPPGVPVRFSGSKSGTSASLAISGLQSEDEATYYCATWDDNLNVHYVFGTGTKVTVLG
notes: also called ET140-3 mIgG1; ET140-3
As for B1, the binding result in [1], in assay [2], in assay [3], in assay [4], in assay [5] and in assay [6] was “no binding (tested: 1 ug/mL)” each time.

B2: ET140-174 mIgG1 (antibody, V domains shown)
VH: EVQLVQSGAEVKKPGESLKISCKGSGYSFTSYWIGWVRQMPGKGLEWMGIIYPGDSDTRYSPSFQGHVTISADKSISTAYLQWSSLKASDTAMYYCARYSGSFDNWGQGTLVTVSS
VL: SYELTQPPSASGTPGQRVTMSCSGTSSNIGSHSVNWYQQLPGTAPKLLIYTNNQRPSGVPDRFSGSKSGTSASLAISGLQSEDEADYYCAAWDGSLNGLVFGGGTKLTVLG
notes: also called ET140-24 mIgG1; ET140-24
Take B2: the binding result in assay [7], in assay [8], in assay [9], in [10], in assay [11] and in [12] was “no binding (tested: 1 ug/mL)” each time. The binding result in [13], in [14], in [15], in assay [16], in assay [17] and in assay [18] was “no binding (tested: 1 ug/mL)” each time. For the same molecule, the binding result in assay [19], in [20], in [21], in assay [22], in assay [23] and in assay [24] was “no binding (tested: 1 ug/mL)” in each case. In addition, the binding result in [25], in assay [26], in assay [27], in [28], in assay [29] and in [30] was “no binding (tested: 1 ug/mL)” in each case. In addition, the A450 in assay [31] came to 0.537; in assay [32], 0.212.

B3: ET140-204 mIgG1 (antibody, V domains shown)
VH: EVQLVQSGAEMKKPGASLKLSCKASGYTFIDYYVYWMRQAPGQGLESMGWINPNSGGTNYAQKFQGRVTMTRDTSISTAYMELSRLRSDDTAMYYCARSQRDGYMDYWGQGTLVTVSS
VL: QSALTQPASVSASPGQSIAISCTGTSSDVGWYQQHPGKAPKLMIYEDSKRPSGVSNRFSGSKSGNTASLTISGLQAEDEADYYCSSNTRSSTLVFGGGTKLTVLG
notes: also called ET140-54 mIgG1; ET140-54
Consider B3, for which the binding result in [7], in [8], in assay [9], in [10], in assay [11] and in assay [12] was “no binding (tested: 1 ug/mL)” in each case. The binding result in assay [13], in [14], in assay [15], in [16], in [17] and in assay [18] was “no binding (tested: 1 ug/mL)” in each case. In addition, the binding result in [19], in assay [20], in assay [21], in [22], in assay [23] and in assay [24] was “no binding (tested: 1 ug/mL)” in each case. The binding result in assay [25], in assay [26], in assay [27], in assay [28], in assay [29] and in assay [30] was “no binding (tested: 1 ug/mL)” throughout. For the same molecule, the A450 in assay [31] came to 0.494; in [32], 0.2.
